Data reported in patent US12723255B2, “Herbicide tolerance genes and methods of use thereof” (priority 2014, dated 2026).
Read-outs that look alike come from different tables or passages of the source.

Legend:
[1] = type: physicochemical; settings: Table 11 series
Description: A protein melting analysis was also conducted. For the protein melting determinations, purified enzyme was added to 96-well microtiter plates in standard storage buffer (30 mM Tris pH7.5, 150 mM NaCl) with or without 50 uM Fe2+ and 1.0 mM aKG. Protein unfolding was then detected with SYPRO® orange protein gel stain (Invitrogen™ catalog #S6651, Life Technologies, Grand Island, NY) in a BioRad CFX96™ Real time PCR machine (BioRad, Hercules, CA) with readings taken between 10° C. to 95° C. in 0.5° C. steps. […] In contrast, 50 uM Fe2+ and 1.0 mM aKG had little effect on the stability of any of the engineered proteins. MON-HT55, MON-HT3, MON-HT4, MON-HT6, and MON-HT10 had melting temperatures in the range of 41° C. to 48° C., which is below the melting temperature of the wild-type enzyme. MON-HT1, MON-HT2, MON-HT5, MON-HT7, MON-HT8, and MON-HT9 had melting temperatures between 58° C. and 67° C., which is 8° C. to 17° C. higher than the wild-type enzyme. For MON-HT7 and MON-HT1, the difference in melting point was 11° C. in buffer without Fe2+ and aKG and 8° C. in buffer with Fe2+ and aKG. This was surprising since there are only four amino acid differences between the two enzymes.
A protein melting analysis was conducted as detailed above. The melting temperatures of MON-HT13, MON-HT15, and MON-HT17 was similar to the melting temperature of MON-HT1 with T1/2 in buffer in the range of 55-58° C., and with T1/2 in buffer plus Fe2+ and aKG in the range of 60-62° C.

[2] = enzyme activity assay at 23° C. with purified enzyme; type: biochemical
Description: The enzyme activity of MON-HT protein variants with triclopyr, fluroxypyr, MCPA, MCPB, mecoprop, as substrates was determined using the enzyme activity assay conducted at 23° C. with purified enzyme. The activity was recorded as the maximum activity as a percentage of the wild-type RdpA enzyme's activity, which was set at 100%. […] The enzymatic activity with mecoprop as a substrate was reduced for each of the MON-HT1, MON-HT13, MON-HT15, and MON-HT17 variants compared to the wild-type RdpA enzyme. An unexpected result was that enzymatic activity with MCPA as a substrate was roughly 6-fold greater for MON-HT1, and approximately 10-fold greater for MON-HT13, MON-HT15, and MON-HT17 compared to the wild-type RdpA enzyme.

[3] = system: transgenic soybean plants; assay: R0 soybean 2,4-D spray test of 2,4-D optimized variants; type: in vivo
From the text: An additional five engineered proteins optimized for activity for 2,4-D were then selected for analysis in transgenic soybean. DNA constructs were produced for expressing MON-HT13 (SEQ ID NO:47), MON-HT14 (SEQ ID NO:48), MON-HT15 (SEQ ID NO:49), MON-HT17 (SEQ ID NO:51), and MON-HT18 (SEQ ID NO:52) with codon usage optimized for dicot expression. The operably linked expression elements (promoter, leader, intron, CTP, and 3′UTR) were identical in all of the constructs. Leaf samples were taken from R0 plantlets and single copy plants were identified using a PCR-based assay. When the single-copy R0 plants had approximately two to three trifoliate leaves, they were treated with either 1.5 lb ae/acre (2×) or 3.0 lb ae/acre (4×) of 2,4-D. Seven days after herbicide application, the plants were scored for herbicide injury based on the percent area of the plant showing injury, as indicated above.

[4] = kinetic analysis, non-endpoint assay at 23° C.; type: biochemical
From the text: For the fifth screen, recombinant protein for each of the eleven engineered proteins was produced and purified for an in-depth biochemical analysis. This biochemical analysis included: (1) kinetic analysis (Vmax and Km), (2) activity assays over a range of temperatures, (3) protein melting analysis, (4) activity on additional AOPP herbicides substrates, and (5) mass spectrometry analysis on peptides to confirm identity. The biochemical analyses were also done with purified recombinant wild-type protein and MON-HT55 protein for comparison. For the kinetic analysis, a non-endpoint assay was conducted at 23° C. with either quizalofop-P or 2,4-D as substrate. The recombinant proteins for these assays were produced in bacteria and purified using a 6-His tag fused at the C-terminal end of the protein. Results of the kinetic analysis with either quizalofop-P or 2,4-D as substrate are presented for ten of the engineered proteins, wild-type protein, and MON-HT55 protein in Table 7 (standard error is shown in parenthetical). Vmax is expressed as specific activity, umol herbicide product mg enzyme-1 min-1; Km expressed as mM herbicide substrate. […] The differentiation of the protein kinetics for MON-HTI and MON-HT7 were surprising because there are only four amino acid differences between MON-HT1 and MON-HT7. Specifically, MON-HT1 has the following amino acids at the indicated position: 182; F105; T112; and V273, and MON-HT7 has the following amino acids at the indicated position: L82; V105; S112; and A273.
Kinetic analysis using a non-endpoint assay was conducted at 23° C. with either quizalofop-P or 2,4-D as substrate, as detailed above for purified protein of the wild-type enzyme, MON-HT1, MON-HT13, MON-HT15, and MON-HT17.

[5] = percentage of wild-type RdpA, set at 100%

B1: MON-HT17: engineered oxygenase protein, amino acid sequence SEQ ID NO:51 (protein)
chain: MHAALTPLTNKYRFIDVQPLTGVLGAEITGVDLREPLDDSTWNEILDAFHTYQVIYFPGQAITNEQHIAFSRRFGPVDPVPILKSIEGYPEVQMIRREANESSRYIGDDWHADSTFLDAPPAAVVMRAIEVPEYGGDTGFLSMYSAWETLSPTMQATIEGLNVVHSATKVFGSLYQATNWRFSNTSVKVMDVDAGDRETVHPLVVTHPVTGRRALYCNQVYCQKIQGMTDAESKSLLQFLYEHATQFDFTCRVRWKKDQVLVWDNLCTMHRAVPDYAGKFRYLTRTTVAGDKPSR
- Melting temp, Buffer [1]: 57 °C
- Melting temp, Buffer plus Fe2+ and aKG [1]: 61 °C
- activity with MCPB as the substrate [2]: no detectable activity
- enzymatic activity with MCPA greater compared to the wild-type RdpA enzyme [2]: approximately 10 fold
- activity with fluroxypyr as the substrate ([2]; not robust enough to quantify): detectable activity
- activity with triclopyr as the substrate ([2]; not robust enough to quantify): detectable activity
- MCPA Km [2, 5]: 62%
- MCPA Vmax [2, 5]: 1400%
- Mecoprop Km [2, 5]: 65%
- Events with <20% injury ([3]; 2,4-D rate 2X (1.5 lb ae/acre), single copy R0 soy, seven days after application): 12
- tolerance to 2,4-D treatment ([3]; 2× application rate, soy): excellent tolerance
- enzymatic activity with quizalofop compared with MON-HT1 [4]: roughly similar to the activity of MON-HT1
- Vmax 2,4-D ([4]; Table 10 series, unit as defined): 2.91 (0.04) umol herbicide product mg enzyme-1 min-1
- Km ([4]; Table 10 series, unit as defined, read-out: Km 2,4-D): 70 µM
- Vmax Quizalofop ([4]; Table 10 series, 23° C., unit as defined): 1.53 (0.05) umol herbicide product mg enzyme-1 min-1
- Km ([4]; Table 10 series, 23° C., unit as defined, read-out: Km Quizalofop): 140 µM
